{
  "source": "paper PMC10527347",
  "about": "(Journal of molecular biology, 2023)",
  "binders": {"B1": {"name": "CbpA A44C (natural protein, E. coli, UniProt P36659 1-306, looked up)", "chain": "MELKDYYAIMGVKPTDDLKTIKTAYRRLARKYHPDVSKEPDAECRFKEVAEAWEVLSDEQRRAEYDQMWQHRNDPQFNRQFHHGDGQSFNAEDFDDIFSSIFGQHARQSRQRPATRGHDIEIEVAVFLEETLTEHKRTISYNLPVYNAFGMIEQEIPKTLNVKIPAGVGNGQRIRLKGQGTPGENGGPNGDLWLVIHIAPHPLFDIVGQDLEIVVPVSPWEAALGAKVTVPTLKESILLTIPPGSQAGQRLRVKGKGLVSKKQTGDLYAVLKIVMPPKPDENTAALWQQLADAQSSFDPRKDWGKA"}, "B2": {"name": "CbpA E51C (natural protein, E. coli, UniProt P36659 1-306, looked up)", "chain": "B1 chain with C44A, E51C"}, "B3": {"name": "CbpA K22C (natural protein, E. coli, UniProt P36659 1-306, looked up)", "chain": "B1 chain with K22C, C44A"}, "B4": {"name": "CbpA S57C (natural protein, E. coli, UniProt P36659 1-306, looked up)", "chain": "B1 chain with C44A, S57C"}, "B5": {"name": "CbpA wild-type (natural protein, E. coli, UniProt P36659 1-306, looked up)", "chain": "B1 chain with C44A"}, "B6": {"name": "biotin-labeled DnaJ (natural protein, E. coli, UniProt P08622 1-376, looked up)", "chain": "MAKQDYYEILGVSKTAEEREIRKAYKRLAMKYHPDRNQGDKEAEAKFKEIKEAYEVLTDSQKRAAYDQYGHAAFEQGGMGGGGFGGGADFSDIFGDVFGDIFGGGRGRQRAARGADLRYNMELTLEEAVRGVTKEIRIPTLEECDVCHGSGAKPGTQPQTCPTCHGSGQVQMRQGFFAVQQTCPHCQGRGTLIKDPCNKCHGHGRVERSKTLSVKIPAGVDTGDRIRLAGEGEAGEHGAPAGDLYVQVQVKQHPIFEREGNNLYCEVPINFAMAALGGEIEVPTLDGRVKLKVPGETQTGKLFRMRGKGVKSVRGGAQGDLLCRVVVETPVGLNERQKQLLQELQESFGGPTGEHNSPRSKSFFDGVKKFFDDLTR", "modifications": "biotin label (site not stated)"}, "B7": {"name": "Hsp82 wild-type (natural protein)", "chain": "not shown"}},
  "key": {"Hsp90Ec N347C [1]": {"target": "T1, Hsp90Ec N347C (E. coli, UniProt P0A6Z3 1-624, N347C)", "assay": "cross-linking"}, "Hsp90Ec N350C": {"target": "Hsp90Ec N350C (E. coli, UniProt P0A6Z3 1-624, N350C)", "assay": "cross-linking"}, "Hsp90Ec N347C/D80N": {"target": "Hsp90Ec N347C/D80N (E. coli, UniProt P0A6Z3 1-624, N347C | D80N)", "assay": "cross-linking"}, "Hsp90Ec K199C [2]": {"target": "T2, Hsp90Ec K199C (E. coli, UniProt P0A6Z3 1-624, K199C)", "assay": "cross-linking"}, "cross-linking": {"target": "the molecule itself", "assay": "cross-linking"}, "Hsp90Ec N347C [3]": {"target": "T1, Hsp90Ec N347C", "assay": "cross-linking", "remark": "listed apart in the source"}, "Hsp90Ec K199C [4]": {"target": "T2, Hsp90Ec K199C", "assay": "cross-linking", "remark": "listed apart in the source"}, "Hsp90Ec K71C": {"target": "Hsp90Ec K71C (E. coli, UniProt P0A6Z3 1-624, K71C)", "assay": "cross-linking"}, "Hsp90Ec K238C": {"target": "Hsp90Ec K238C (E. coli, UniProt P0A6Z3 1-624, K238C)", "assay": "cross-linking"}, "Hsp90Ec K99C": {"target": "Hsp90Ec K99C (E. coli, UniProt P0A6Z3 1-624, K99C)", "assay": "cross-linking"}, "Hsp90Ec K45C": {"target": "Hsp90Ec K45C (E. coli, UniProt P0A6Z3 1-624, K45C)", "assay": "cross-linking"}, "Hsp90Ec K103C": {"target": "Hsp90Ec K103C (E. coli, UniProt P0A6Z3 1-624, K103C)", "assay": "cross-linking"}, "Hsp90Ec K354C": {"target": "Hsp90Ec K354C (E. coli, UniProt P0A6Z3 1-624, K354C)", "assay": "cross-linking"}, "Hsp90Ec wild-type [5]": {"target": "T3, Hsp90Ec wild-type (E. coli, UniProt P0A6Z3 1-624)", "assay": "cross-linking"}, "Hsp90Ec wild-type [6]": {"target": "T3, Hsp90Ec wild-type", "assay": "BLI"}, "biotin-labeled Ydj1": {"target": "T4, biotin-labeled Ydj1 (S. cerevisiae, UniProt P25491 1-409, biotin label (site not stated))", "T4 sequence (looked up)": "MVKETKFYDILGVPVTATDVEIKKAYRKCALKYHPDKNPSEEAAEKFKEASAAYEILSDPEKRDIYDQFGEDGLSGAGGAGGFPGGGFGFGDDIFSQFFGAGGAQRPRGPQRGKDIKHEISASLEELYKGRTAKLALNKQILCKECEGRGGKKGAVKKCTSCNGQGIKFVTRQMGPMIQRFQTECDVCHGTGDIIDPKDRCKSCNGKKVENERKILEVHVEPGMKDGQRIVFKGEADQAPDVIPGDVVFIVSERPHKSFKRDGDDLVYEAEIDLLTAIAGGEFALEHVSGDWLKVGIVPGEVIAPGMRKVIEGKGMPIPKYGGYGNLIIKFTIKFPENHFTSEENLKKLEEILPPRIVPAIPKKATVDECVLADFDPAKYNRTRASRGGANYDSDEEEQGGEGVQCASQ", "assay": "pull-down"}},
  "note": "Changes are numbered by the printed parent chain. In names and notes the source's numbering stands. Where two headings read alike, the source gives them in different places.",
  "data": [
    {"binder": "B1", "values": [
      {"measurement": "binding result", "setting": "Hsp90Ec N347C [1]", "value": "binds"}
    ]},
    {"binder": "B2", "values": [
      {"measurement": "binding result", "setting": "Hsp90Ec N350C", "value": "binds"},
      {"measurement": "binding result", "setting": "Hsp90Ec N347C/D80N", "value": "binds"},
      {"measurement": "binding result", "setting": "Hsp90Ec K199C [2]", "value": "binds"},
      {"measurement": "binding result", "setting": "cross-linking", "value": "binds"},
      {"measurement": "binding result", "setting": "Hsp90Ec N347C [3]", "value": "binds"}
    ]},
    {"binder": "B3", "values": [
      {"measurement": "binding result", "setting": "Hsp90Ec N347C [1]", "value": "binds"},
      {"measurement": "binding result", "setting": "Hsp90Ec K199C [4]", "value": "binds"},
      {"measurement": "binding result", "setting": "Hsp90Ec K71C", "value": "binds"},
      {"measurement": "binding result", "setting": "Hsp90Ec K238C", "value": "binds"},
      {"measurement": "binding result", "setting": "Hsp90Ec K99C", "value": "binds"},
      {"measurement": "binding result", "setting": "Hsp90Ec K45C", "value": "binds"},
      {"measurement": "binding result", "setting": "Hsp90Ec K103C", "value": "binds"},
      {"measurement": "binding result", "setting": "Hsp90Ec K354C", "value": "binds"}
    ]},
    {"binder": "B4", "values": [
      {"measurement": "binding result", "setting": "Hsp90Ec N347C [1]", "value": "binds"}
    ]},
    {"binder": "B5", "values": [
      {"measurement": "binding result", "setting": "Hsp90Ec K199C [2]", "value": "binds"},
      {"measurement": "binding result", "setting": "Hsp90Ec wild-type [5]", "value": "binds"}
    ]},
    {"binder": "B6", "values": [
      {"measurement": "Kd", "setting": "Hsp90Ec wild-type [6]", "value": "3.6 ± 0.3", "unit": "µM"}
    ]},
    {"binder": "B7", "values": [
      {"measurement": "fold change in interaction, with L2 against without L2", "setting": "biotin-labeled Ydj1", "value": "~2", "unit": "fold"}
    ]}
  ]
}
